The first assay concerns the target Anti-CD28 Fab (SEQ ID NOs: 202, 203). In words: phage binding ELISA on captured Fab.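 Further: clonal phage supernatants added briefly to wells pre-incubated with CD28 antigen or with blocking buffer only, then washed, bound phage read by ELISA using HRP-coupled anti-M13 antibody.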
Anti-CD28 Fab (SEQ ID NOs: 202, 203), sequence (VH, as listed by the source, chain 1 of 2): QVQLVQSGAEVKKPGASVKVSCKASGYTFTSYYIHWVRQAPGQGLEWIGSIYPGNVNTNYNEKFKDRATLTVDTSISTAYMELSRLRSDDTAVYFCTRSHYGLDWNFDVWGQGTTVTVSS
Anti-CD28 Fab (SEQ ID NOs: 202, 203), sequence (VL, as listed by the source, chain 2 of 2): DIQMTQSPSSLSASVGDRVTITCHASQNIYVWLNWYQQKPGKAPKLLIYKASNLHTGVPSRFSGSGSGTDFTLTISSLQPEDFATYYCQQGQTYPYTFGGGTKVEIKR
Method: (§1) Clonal phage were harvested as crude supernatants and screened via standard ELISAs. […] Prior to the addition of clonal phage, wells were incubated with blocking buffer and CD28 antigen or blocking buffer alone. Without washing or aspirating, clonal phage supernatants were then added to the wells and incubated for a short time. Wells were then washed followed by detection of bound phage using a horse radish conjugated anti-M13 antibody.
As to YCEGHEGIYFWKCL [Phage-27], the “Anti-CD28 Fab signal” value stood at 2.07.
Still for that read-out and setting: with YCDGHLPEYMAKCL [Phage-69] the figure was 2.37.
Regarding YCEGHSPEYMSKCL [Phage-89], the “Anti-CD28 Fab signal” value stood at 2.31.
The same measure, in the same setting: to YCDGHLDEYMAKCL [Phage-94] belongs 2.31; to YCEGHLPEYRNKCL [Phage-40], 2.38.
For the molecule YCAGHLPQYMSKCL [Phage-72], the “Anti-CD28 Fab signal” value was 2.37.
The same measure, in the same setting: to YCEGHLPEYIEKCL [Phage-28] belongs 2.06; to YCEGHAPEYIRKCL [Phage-30], 1.63.
Same read-out and setting: with YCDGHLPQYMEKCL [Phage-47] the figure was 2.47.
On to YCEGHLPEYREKCL [Phage-34], for which the “Anti-CD28 Fab signal” value stood at 1.96.
Same read-out and setting: with YCMGHAPEYMAKCL [Phage-68] the figure was 2.38.
With YCEGHLPEYIQKCL [Phage-42], the “Anti-CD28 Fab signal” value amounted to 1.9.
Same read-out and setting: with YCDGHLPEYMSKCM [Phage-66] the figure was 2.38; with YCEGHAPEYIGKCL [Phage-44], 2.1.
For the molecule YCDGHSPIYMWKCL [Phage-45], the “Anti-CD28 Fab signal” value stood at 2.47.
On the same count and under the same terms, with YCEGHAAEYMTKCL [Phage-143] the figure was 2.22; with YCEGHLPQYMWKCL [Phage-51], 2.44; with YCAGHAPEYMEKCL [Phage-48], 2.45.
On the same count and under the same terms, with YCEGHLPQYMKKCL [Phage-144] the figure was 2.22; with YCEGHLPEYMWKCL [Phage-62], 2.39; with YCDGHSPEYMWKCL [Phage-49], 2.44.
Still for that read-out and setting: to YCDGHLPIYMSQCL [Phage-73] belongs 2.36; to YCEGHLPEYMFKCL [Phage-58], 2.4.
On to YCAGHLPEYMDKCL [Phage-53], for which the “Anti-CD28 Fab signal” value was determined as 2.42.
Still for that read-out and setting: with YCDGHSAEHMAKCL [Phage-54] the figure was 2.41; with YCEGHAPEYMAKCL [Phage-46], 2.47; with YCDGHLPEYMNKCL [Phage-52], 2.43.
Take YCEGHSPQYMWKCL [Phage-142]: the “Anti-CD28 Fab signal” value turned out to be 2.22.
Take YCDGHLPIYMAKCL [Phage-100]: the “Anti-CD28 Fab signal” value was 2.3.
YCDGHLPQYMAQCL [Phage-59]: the “Anti-CD28 Fab signal” value is 2.4.
On the same count and under the same terms, with YCEGHLPLYMWKCL [Phage-96] the figure was 2.3; with YCEGHAPEYMLKCL [Phage-146], 2.21; with YCEGHLPEYLGKCL [Phage-33], 1.23.
YCEGHLPQYMQKCL [Phage-60]: the “Anti-CD28 Fab signal” value is 2.39.
Still for that read-out and setting: with YCDGHLPEYMEKCL [Phage-50] the figure was 2.44.
Still for that read-out and setting: to YCEGHAPEYIWKCL [Phage-31] belongs 1.63.
As for YCDGHLPEYQEKCL [Phage-71], the “Anti-CD28 Fab signal” value came out at 2.37.
YCDGHLPEYLAKCL [Phage-64]: the “Anti-CD28 Fab signal” value is 2.38.
As for YCEGHAPEYIAKCL [Phage-29], the “Anti-CD28 Fab signal” value is 2.15.
On the same count and under the same terms, with YCEGHLPEYIWKCL [Phage-43] the figure was 2.32.
The same measure, in the same setting: with YCDGHAPEYMMKCL [Phage-61] the figure was 2.39.
As for YCEGHLPEYMAKCL [Phage-57], the “Anti-CD28 Fab signal” value came to 2.41.
As to YCEGHAAEYMAKCL [Phage-63], the “Anti-CD28 Fab signal” value is 2.38.
Regarding YCEGHLPEYLAKCL [Phage-35], the “Anti-CD28 Fab signal” value amounted to 2.34.
Same read-out and setting: with YCAGHLPQYMAKCL [Phage-55] the figure was 2.41; with YCEGHSPEYILKCL [Phage-25], 1.75.
Take YCDGHSPEYILKCL [Phage-93]: the “Anti-CD28 Fab signal” value is 2.31.
As for YCEGHRPEYILKCL [Phage-26], the “Anti-CD28 Fab signal” value amounted to 1.27.

Another assay shares this target. The experiment in a line: phage binding ELISA on captured Fab; competitor CD28 antigen.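 Further: wells pretreated with CD28 antigen in blocking buffer or buffer only, then clonal phage supernatants added briefly without washing, bound phage detected via horseradish-conjugated anti-M13 antibody.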
Method: as §1
As to YCEGHEGIYFWKCL [Phage-27], the “Anti-CD28 Fab signal in the presence of CD28” value (from here on “Anti-CD28 Fab signal … of CD28”) worked out at 0.06.
Same read-out and setting: with YCDGHLPEYMAKCL [Phage-69] the figure was 0.13; with YCEGHSPEYMSKCL [Phage-89], 0.07; with YCDGHLDEYMAKCL [Phage-94], 0.08.
Same read-out and setting: to YCEGHLPEYRNKCL [Phage-40] belongs 0.17; to YCAGHLPQYMSKCL [Phage-72], 0.11; to YCEGHLPEYIEKCL [Phage-28], 0.08.
Consider YCEGHAPEYIRKCL [Phage-30], for which the “Anti-CD28 Fab signal … of CD28” value was found to be 0.08.
Still for that read-out and setting: with YCDGHLPQYMEKCL [Phage-47] the figure was 0.11; with YCEGHLPEYREKCL [Phage-34], 0.07.
Still for that read-out and setting: with YCMGHAPEYMAKCL [Phage-68] the figure was 0.09.
Same read-out and setting: to YCEGHLPEYIQKCL [Phage-42] belongs 0.08.
As for YCDGHLPEYMSKCM [Phage-66], the “Anti-CD28 Fab signal … of CD28” value was found to be 0.14.
Still for that read-out and setting: with YCEGHAPEYIGKCL [Phage-44] the figure was 0.07; with YCDGHSPIYMWKCL [Phage-45], 0.09; with YCEGHAAEYMTKCL [Phage-143], 0.08.
On the same count and under the same terms, with YCEGHLPQYMWKCL [Phage-51] the figure was 0.17; with YCAGHAPEYMEKCL [Phage-48], 0.09.
For the molecule YCEGHLPQYMKKCL [Phage-144], the “Anti-CD28 Fab signal … of CD28” value amounted to 0.1.
Still for that read-out and setting: with YCEGHLPEYMWKCL [Phage-62] the figure was 0.08; with YCDGHSPEYMWKCL [Phage-49], 0.09; with YCDGHLPIYMSQCL [Phage-73], 0.12.
Turning to YCEGHLPEYMFKCL [Phage-58], the “Anti-CD28 Fab signal … of CD28” value worked out at 0.12.
Consider YCAGHLPEYMDKCL [Phage-53], for which the “Anti-CD28 Fab signal … of CD28” value was determined as 0.12.
In the case of YCDGHSAEHMAKCL [Phage-54], the “Anti-CD28 Fab signal … of CD28” value is 0.08.
Same read-out and setting: to YCEGHAPEYMAKCL [Phage-46] belongs 0.08.
For the molecule YCDGHLPEYMNKCL [Phage-52], the “Anti-CD28 Fab signal … of CD28” value is 0.13.
On the same count and under the same terms, with YCEGHSPQYMWKCL [Phage-142] the figure was 0.12.
Same read-out and setting: with YCDGHLPIYMAKCL [Phage-100] the figure was 0.14.
Turning to YCDGHLPQYMAQCL [Phage-59], the “Anti-CD28 Fab signal … of CD28” value is 0.2.
The same measure, in the same setting: to YCEGHLPLYMWKCL [Phage-96] belongs 0.07.
On the same count and under the same terms, with YCEGHAPEYMLKCL [Phage-146] the figure was 0.07; with YCEGHLPEYLGKCL [Phage-33], 0.08.
On to YCEGHLPQYMQKCL [Phage-60], for which the “Anti-CD28 Fab signal … of CD28” value is 0.12.
The same measure, in the same setting: to YCDGHLPEYMEKCL [Phage-50] belongs 0.1; to YCEGHAPEYIWKCL [Phage-31], 0.07; to YCDGHLPEYQEKCL [Phage-71], 0.1.
Turning to YCDGHLPEYLAKCL [Phage-64], the “Anti-CD28 Fab signal … of CD28” value is 0.11.
In the case of YCEGHAPEYIAKCL [Phage-29], the “Anti-CD28 Fab signal … of CD28” value was 0.09.
As for YCEGHLPEYIWKCL [Phage-43], the “Anti-CD28 Fab signal … of CD28” value stood at 0.09.
Regarding YCDGHAPEYMMKCL [Phage-61], the “Anti-CD28 Fab signal … of CD28” value is 0.09.
As to YCEGHLPEYMAKCL [Phage-57], the “Anti-CD28 Fab signal … of CD28” value was found to be 0.14.
Still for that read-out and setting: to YCEGHAAEYMAKCL [Phage-63] belongs 0.08.
Still for that read-out and setting: with YCEGHLPEYLAKCL [Phage-35] the figure was 0.1; with YCAGHLPQYMAKCL [Phage-55], 0.17; with YCEGHSPEYILKCL [Phage-25], 0.06.
With YCDGHSPEYILKCL [Phage-93], the “Anti-CD28 Fab signal … of CD28” value was determined as 0.09.
Turning to YCEGHRPEYILKCL [Phage-26], the “Anti-CD28 Fab signal … of CD28” value was found to be 0.06.
